The values below come from US20160009772A1 (published 2016).

The target in this assay is N-terminal His (six histadine)-tagged IRF5 (222-425) SEQ ID NO 22 (UniProt Q13568 222-425). Kind of assay: TR-FRET. In general terms: Time-resolved FRET reads energy transfer from a long-lived donor to a nearby acceptor.

Primed or numbered codes have the meaning given here. FITC′ = fluorescein isothiocyanate; Ahx = NCCCCCC(=O)O

Chain of N-terminal His (six histadine)-tagged IRF5 (222-425) SEQ ID NO 22 (Q13568 other isoform, or with tags, fused parts or gaps): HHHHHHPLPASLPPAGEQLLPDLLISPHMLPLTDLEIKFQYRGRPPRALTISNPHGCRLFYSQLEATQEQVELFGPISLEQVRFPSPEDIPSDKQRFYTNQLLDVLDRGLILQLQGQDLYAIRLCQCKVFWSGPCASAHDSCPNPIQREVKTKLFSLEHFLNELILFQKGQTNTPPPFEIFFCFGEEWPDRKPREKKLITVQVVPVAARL

Usually Kd stands for the equilibrium constant for the complex coming apart. Lower therefore signals a tighter complex. As for {FITC′-Ahx}-IRLQISNPYLKFIPLKRAIWLIK-NH2 [FITC-Aha-IRLQISNPYLKFIPLKRAIWLIK-NH2 (SEQ ID NO: 16)], binding was put at a Kd of 930 nM.
In the case of {FITC′-Ahx}-MIILIISFPKHKDWKVILVK-NH2 [FITC-Aha-MIILIISFPKHKDWKVILVK-NH2 (SEQ ID NO: 17)], the Kd came to 530 nM.
